Tests used:
[1] = target: T1, BcUGAepi (UDP-glucuronic acid 4-epimerase) (Bacillus cereus group, UniProt Z9OZ01HDE8); assay: HPLC of cofactor released from denatured enzyme; assay type: binding
T1 construct: C-terminal Strep-tag kept; synthetic gene in pET17b; expressed in E. coli Lemo21(DE3); monomer 37003 g/mol

[2] = test system: BcUGAepi (UDP-glucuronic acid 4-epimerase); settings: tightly bound cofactor of the isolated enzyme
[3] = test system: BcUGAepi (UDP-glucuronic acid 4-epimerase); settings: 1 mM UDP-GlcA; 135 µM enzyme; 100 µM NAD+; pH 7.6; 23 °C
[4] = test system: O=C(O)[C@H]1O[C@H](OP(=O)(O)OP(=O)(O)OC[C@H]2O[C@@H](n3ccc(=O)[nH]c3=O)[C@H](O)[C@@H]2O)[C@H](O)[C@@H](O)[C@@H]1O; assay: purified protein; settings: forward epimerization, 50 µM NAD+, 50 mM sodium phosphate, 100 mM NaCl, pH 7.6, room temperature (23 °C)
[5] = test system: O=C(O)[C@H]1O[C@H](OP(=O)(O)OP(=O)(O)OC[C@H]2O[C@@H](n3ccc(=O)[nH]c3=O)[C@H](O)[C@@H]2O)[C@H](O)[C@@H](O)[C@H]1O; assay: purified protein; settings: reverse epimerization, 50 µM NAD+, 50 mM sodium phosphate, 100 mM NaCl, pH 7.6, room temperature (23 °C)
[6] = target: Tyr149 (UniProt position 149, TPQSPYGKSKL); assay: kinetics; settings: cited from earlier work
[7] = target: UDP-glucuronic acid 4-epimerase from Bacillus cereus HuA2-4 (Bacillus cereus HuA2-4); assay: SEC; gel filtration of the isolated protein (HiLoad 16/60 Superdex 200, calibrated with a gel filtration standard mixture); details in the Supporting information
[8] = target: Tyr149 (position 149, …); assay: kinetics; settings: 23 °C, 50 mM Na2HPO4, 100 mM NaCl, pH adjusted with NaOH or HCl, Enzyme-NAD+ with saturating UDP-GlcA (1 mM) and 100 µM added NAD+. The kcat profile reports on the enzyme/NAD+/UDP-GlcA complex.

Molecule: NC(=O)C1=CN([C@@H]2O[C@H](COP(=O)(O)OP(=O)(O)OC[C@H]3O[C@@H](n4cnc5c(N)ncnc54)[C@H](O)[C@@H]3O)[C@@H](O)[C@H]2O)C=CC1 [NADH]
- HPLC of cofactor released from denatured enzyme ([1]; minor co-purified reduced form of the bound cofactor): NADH was also present, the content varying slightly

Molecule: NC(=O)c1ccc[n+]([C@@H]2O[C@H](COP(=O)(O)OP(=O)(O)OC[C@H]3O[C@@H](n4cnc5c(N)ncnc54)[C@H](O)[C@@H]3O)[C@@H](O)[C@H]2O)c1 [NAD^+]
- co-purified cofactor [2]: The purified Y149F variant (Fig. S19) contained protein‐bound NAD^+ as the wild‐type enzyme
- HPLC of cofactor released from denatured enzyme ([1]; co-purified, tightly bound, one per subunit): we identified the cofactor as NAD, not NADP

Molecule: O=C(O)[C@H]1O[C@H](OP(=O)(O)OP(=O)(O)OC[C@H]2O[C@@H](n3ccc(=O)[nH]c3=O)[C@H](O)[C@@H]2O)[C@H](O)[C@@H](O)[C@@H]1O [UDP-GlcA]
- HPLC time course of conversion [3]: the Y149F variant converted UDP‐GlcA into UDP‐GalA without trace formation of side products

Molecule: BcUGAepi (UDP-glucuronic acid 4-epimerase) (Bacillus cereus group)
- Km [4]: 360 ± 20 µM
- kcat [4]: 0.25 ± 0.01 s⁻¹
- Km [5]: 890 ± 130 µM
- kcat [5]: 0.32 ± 0.02 s⁻¹

Molecule: UDP-galactose 4-epimerase (GALE) (Escherichia coli)
- pKa [6]: 6.9

Molecule: UDP-glucuronic acid 4-epimerase from Bacillus cereus HuA2-4 (enzyme)
- stoichiometry N [7]: 2

B1: UDP-glucuronic acid 4-epimerase (BcUGAepi) (Bacillus cereus HuA2-4) (protein)
chain: MKILVTGAAGFIGSHLCQALLKNSAYHVVGIDHFIGPTPATLKTGNIQSLELNSRFQFIREDILNTDLSKLLQDIDVVYHLAAIPGVRTSWGKDFQPYVTNNIMVTQQLLEACKHIKLDKFIHISTSSVYGEKSGAVSEDLLPIPLSPYGVTKLSGEHLCHVYHKNFHIPIVILRYFTVYGPRQRPDMAFHRLIKQMLEDKPLTIFGDGTQTRDFTYIDDCIRGTVAALETKKNIIGEVINIGGKEQASILDIISMLEKISGKSATKNFLKSVPGEPKQTWADISKASTLLQYSPTVSLSDGLEAEYDYIKQLYKGDAAWSHPQFEK
- pKa [8]: 5.90 (±0.05)

From publication PMC7984243, “Mechanistic characterization of UDP‐glucuronic acid 4‐epimerase” (The Febs Journal, 2020)
